For test [1], the target named is T1, bovine submaxillary mucin (bovine).
T1 construct: Natural mucin preparation; also called BSM
The experiment in a line: ELISA on BSM-coated wells; antibody from one liter production. As to the method:
(§1) For BSM ELISA analysis, antibodies were screened over a concentration range of 0 to 100 nM on bovine submaxillary mucin (BSM) coated wells. A subset of wells were treated with mild periodate solution before antibody binding to remove the side chain on terminal sialic acid residues (destroying the STn antigen). Optical densities of periodate and non-periodate-treated wells were determined and log transformed then fit to a nonlinear regression model to obtain a dose response curve. Optical density values obtained from periodate-treated wells were subtracted from non-periodate treated wells to obtain a periodate-sensitive STn binding curve and corresponding EC₅₀ values.
Based on the results of characterization experiments, two antibodies from each clone group were selected for one liter expression and resulting antibodies were tested again according to the same procedures (see results presented in the following Table).

The target in test [2] is T1, bovine submaxillary mucin. The experiment in a line: ELISA on BSM-coated wells; periodate-sensitive signal. On the procedure: as §1

The record followed here is patent publication US20230331868A1 (Seagen, published 2023).

B1: Humanized 3F1 VL1,VH1 (antibody, V domains shown)
VH: QVQLVQSGAEVKKPGASVKVSCKASGYTFTDHAIHWVRQAPGQGLEWMGYISPGNGDIKYNEKFKDRVTMTADKSSSTAYMQLRSLRSDDTAVYFCKRSLLALDYWGQGTLVTVSS
VL: DIQMTQSPSSLSASVGDRVTITCKASQDVGTNIAWYQQKPGKAPKVLIYSASTRHTGVPSRFSGSGSGTDFTLTISSLQPEDFATYFCQQYSSFPLTFGQGTKVEIK
notes: also called Hu3F1,L1H1; Hu3F1 L1H1
In the case of B1, the EC50 came out at 0.86 nM in test [1] and 1.8 nM in test [2].

B2: Humanized 2G12-2B2 VL2,VH2 (antibody, V domains shown)
VH: QVQLVQSGAEVKKPGASVKISCKASGYTFTDHAIHWVRQAPGQGLEWIGYFSPGNDDIKYNEKFRGRVTLTADKSSSTAYMELRSLRSDDTAVYFCKRSLSTPYWGQGTLVTVSS
VL: DIVMTQSPDSLAVSLGERVTMSCKSSQSLLNRGNHKNYLTWYQQKPGQPPKLLIYWASTRESGVPDRFSGSGSGTDFTLTISSLQAEDVAVYYCQNDYTYPYTFGQGTKVEIK
notes: also called Hu2G12-2B2,L2H2; Hu2G12-2B2 L2H2
Consider B2, for which the EC50 in test [1] was 1.82 nM; in test [2] it was 2.9 nM.
